US20230192897A1 (NUMAB THERAPEUTICS, published 2023)
Blank lines part the entries; values can stand above or below the binder they belong to.

Key:
[1] = molecular target: T1, biotinylated human PDL1 (human, UniProt Q9NZQ7 19-238, limits assumed, biotinylated); test: competition ELISA PD-1/PDL1
T1 construct: also called biotinylated PDL1
Procedure: (§1) Plates were blocked for 1 hour at room temperature by adding 300 μl of PBS with i%BSA and 0.2% tween (dilution buffer) to each well. Inhibitors were serially diluted in 3-fold steps to final concentrations ranging from 300 to 0.005 ng/ml in dilution buffer containing 1 ng/ml biotinylated human PDL1. The mixtures were pre-incubated for 1 hour at room temperature under gentle agitation on a rotating mixer (21 rpm) and added to the microplates after 3 wash cycles with 450 μl wash buffer per well. Plates were incubated for 1.5 hours at room temperature under gentle agitation, then 10 ng/ml streptavidin-polyHRP40 was added to each microplate well after three washes with 450 μl of wash buffer per well. After 1 h incubation at RT, plates were washed three times with 450 μl wash buffer and TMB substrate solution was added. The enzymatic reaction was stopped after 6 minutes by addition of 1 M HCl and absorbance was measured at 450 nm using 690 nm as a reference wavelength. For calculation of IC₅₀ values, a four-parameter logistic (4PL) curve fit was performed in Graph Pad Prism using reference subtracted values.

[2] = molecular target: T2, CD137 on Jurkat NFkB reporter cells (human, UniProt Q07011 24-255); test: cell-based or functional assay
[3] = molecular target: human PDL1 on cells (human, UniProt Q9NZQ7 19-290); test: cell-based or functional assay
[4] = molecular target: T2, CD137 on Jurkat NFkB reporter cells; test: cell-based or functional assay; remark: listed apart in the source
[5] = molecular target: T1, biotinylated human PDL1; test: competition ELISA B7.1/PDL1
Procedure: as §1, with “1% BSA” for “i%BSA”, “Inhibitors were serially diluted in 3-fold steps to final concentrations ranging from 300 to 0.005 ng/ml in dilution buffer containing 1 ng/ml biotinylated human PDL1.” left out

[6] = molecular target: T3, Fc tagged human PDL1 (human, UniProt Q9NZQ7 19-239); test: SPR
T3 construct: Bought (Sino Biological, cat. 10084-H02H); captured on the SPR chip; also called PDL1-Fc chimeric protein
Procedure: (§2) Affinity to PDL1 of the different species was determined by SPR measurements using a Biacore T200 device (GE Healthcare). An antibody specific for the Fc region of human IgGs was immobilized on a sensor chip (CM5 sensor chip, GE Healthcare) by amine-coupling. For all formats, with the exception of the Fc containing Morrison formats, PDL1-Fc chimeric protein from different species were captured by the immobilized antibody.
(§3) Three-fold serial dilutions of the molecules specific for PDL1 (0.12-90 nM) were injected into the flow cells for three minutes and dissociation was monitored for 10 minutes. After each injection cycle, surfaces were regenerated with one injection of a 3 M MgCl₂ solution. The apparent dissociation (kd) and association (kₐ) rate constants and the apparent dissociation equilibrium constant (KD) were calculated using one-to-one Langmuir binding model. Affinity to CD137 of the different species was determined using the identical setup as for PDL1 with the exception that CD137-Fc chimeric protein from different species were captured by the immobilized antibody.

[7] = molecular target: T4, Fc tagged human CD137 (human, UniProt Q07011 24-186); test: SPR
T4 construct: also called CD137-Fc chimeric protein
Procedure: as §2, §3

[8] = molecular target: T5, human serum albumin (human, UniProt P02768 25-609); test: SPR, SA coupled to chip, pH 5.5
T5 construct: Coupled directly to the CM5 chip; also called HSA; human SA
Procedure: Affinity of molecules to serum albumin (SA) of the different species was determined by SPR measurements using a Biacore T200 device (GE Healthcare). SA was directly coupled to a CM5 sensor chip (GE Healthcare) using amine coupling chemistry. […] The assay was run in a 1× PBS-Tween buffer at pH 5.5.

IC50 [1]: 2.69 ng/mL
rel. IC50 (IC50 avelumab/IC50 test) [1]: 0.84 fold
IC50 (ng/ml) (EC50 in Table 16C), NFkB reporter, HCC827 + IFNg, 24 h, +HSA [2]: 5.51 ng/mL
rel. IC50 (PRO1186/test), 24 h [2]: 0.58 fold
IC50 (ng/ml), NF-AT potency assay, +HSA [3]: 40.6 ng/mL
rel. IC50 (avelumab/test), +HSA [3]: 0.92 fold
Area under the curve (calculated using PRO885 normalized data), first line (6 h by the order of the upper part) [4]: 292
Area under the curve (calculated using PRO885 normalized data), second line (24 h by the order of the upper part) [4]: 254
EC50 [ng/ml], NF-kB reporter, HCC827 + IFNg, +HSA, 6 h [4]: 7.22 ng/mL
IC10/EC90 ratio, first line (6 h by the order of the upper part) [4]: 23.7
IC10/EC90 ratio, second line (24 h by the order of the upper part) [4]: 41
Maximum NF-kB activation (rel. to PRO1186) [%], first line (6 h by the order of the upper part) [4]: 147%
Maximum NF-kB activation (rel. to PRO1186) [%], second line (24 h by the order of the upper part) [4]: 117%
rel. Area under the curve (AUCsample/AUCPRO1186), first line (6 h by the order of the upper part) [4]: 1.37 fold
rel. Area under the curve (AUCsample/AUCPRO1186), second line (24 h by the order of the upper part) [4]: 1 fold
rel. EC50 (EC50, PRO1186/EC50, sample), NF-kB reporter, 6 h [4]: 1.04 fold
rel. EC50 (EC50, PRO1186/EC50, sample), NF-kB reporter, 24 h [4]: 0.58 fold
rel. IC10/EC90 (ratio of sample/ratio of PRO1186), first line (6 h by the order of the upper part) [4]: 1.71 fold
rel. IC10/EC90 (ratio of sample/ratio of PRO1186), second line (24 h by the order of the upper part) [4]: 5.72 fold
IC50 [5]: 10.1 ng/mL
rel. IC50 (IC50 avelumab/IC50 test) [5]: 1.45 fold
Kd [6]: 0.0092 nM
kon [6]: 4.7e+06 M⁻¹ s⁻¹
Kd [7]: 0.33 nM
koff [7]: 0.0002 s⁻¹
kon [7]: 630000 M⁻¹ s⁻¹
B1: PRO1481 (other)
chain: DIQMTQSPASLSASVGDRVTITCQASQSIGTYLAWYQQKPGKPPKLLIYRAFILASGVPSRFSGSGSGTDFTLTISSLQPEDFATYYCQSNFYSDSTTIGPNAFGTGTKVTVLGGGGGSESQLVESGGGLVQPGGSLRLSCAASGFSFSANYYPCWVRQAPGKGLEWIGCIYGGSSDITYDANWTKGRFTISRDNSKNTVYLQMNSLRAEDTAVYFCARSAWYSGWGGDLWGPGTLVTVSSGGGGSGGGGSGGGGSGGGGSFQLTQSPSSLSASVGDRVTITCQASQSISNRLAWYQQKPGKPPKLLIYSASTLASGVPSRFSGSGSGTDFTLTISSLQPEDFATYYCQSTYYGNDGNAFGTGTKVTVLGGGGGSEVQLVESGGGLVQPGGSLRLSCAASGFSFNSDYWIYWVRQAPGKGLEWIASIYGGSSGNTQYASWAQGRFTISRDNSKNTVYLQMNSLRAEDTAVYFCARGYVDYGGATDLWGQGTLVTVSSGGGGSGGGGSIQMTQSPSSLSASVGDRVTITCQSSESVYSNNQLSWYQQKPGQPPKLLIYDASDLASGVPSRFSGSGSGTDFTLTISSLQPEDFATYYCAGGFSSSSDTAFGGGTKLTVLGGGGGSGGGGSGGGGSGGGGSEVQLVESGGGLVQPGGSLRLSCAASGFSLSSNAMGWVRQAPGKGLEYIGIISVGGFTYYASWAKGRFTISRDNSKNTVYLQMNSLRAEDTATYFCARDRHGGDSSGAFYLWGQGTLVTVSS
notes: trispecific scDb-scFv; also called 38-27-A11 sc03 scDb-i/37-20-B03 sc09.1 scDb-o/19-01-H04 sc03 scFv

IC50 [1]: 1.92 ng/mL
rel. IC50 (IC50 avelumab/IC50 test) [1]: 0.73 fold
IC50 (ng/ml) (EC50 in Table 16C), NFkB reporter, HCC827 + IFNg, 24 h, +HSA [2]: 4.42 ng/mL
rel. IC50 (PRO1186/test), 24 h [2]: 1.51 fold
Kd [8]: 1 nM
koff [8]: 0.0003 s⁻¹
kon [8]: 290000 M⁻¹ s⁻¹
IC50 (ng/ml), NF-AT potency assay, +HSA [3]: 16.2 ng/mL
rel. IC50 (avelumab/test), +HSA [3]: 1.45 fold
Area under the curve (calculated using PRO885 normalized data), first line (6 h by the order of the upper part) [4]: 196
Area under the curve (calculated using PRO885 normalized data), second line (24 h by the order of the upper part) [4]: 180
EC50 [ng/ml], NF-kB reporter, HCC827 + IFNg, +HSA, 6 h [4]: 9.8 ng/mL
IC10/EC90 ratio, first line (6 h by the order of the upper part) [4]: 72.4
IC10/EC90 ratio, second line (24 h by the order of the upper part) [4]: 1240
Maximum NF-kB activation (rel. to PRO1186) [%], first line (6 h by the order of the upper part) [4]: 110%
Maximum NF-kB activation (rel. to PRO1186) [%], second line (24 h by the order of the upper part) [4]: 98.6%
rel. Area under the curve (AUCsample/AUCPRO1186), first line (6 h by the order of the upper part) [4]: 1.03 fold
rel. Area under the curve (AUCsample/AUCPRO1186), second line (24 h by the order of the upper part) [4]: 0.87 fold
rel. EC50 (EC50, PRO1186/EC50, sample), NF-kB reporter, 6 h [4]: 1.31 fold
rel. EC50 (EC50, PRO1186/EC50, sample), NF-kB reporter, 24 h [4]: 1.51 fold
rel. IC10/EC90 (ratio of sample/ratio of PRO1186), first line (6 h by the order of the upper part) [4]: 0.22 fold
rel. IC10/EC90 (ratio of sample/ratio of PRO1186), second line (24 h by the order of the upper part) [4]: 3.94 fold
IC50 [5]: 2.42 ng/mL
rel. IC50 (IC50 avelumab/IC50 test) [5]: 1.15 fold
Kd [6]: 0.0045 nM
Kd [7]: 1.5 nM
koff [7]: 0.00071 s⁻¹
kon [7]: 460000 M⁻¹ s⁻¹
B2: PRO1430 (other)
chain: DIQMTQSPSSLSASVGDRVTITCQASQSIGTYLAWYQQKPGKAPKLLIYRAFILASGVPSRFSGSGSGTDFTLTISSLQPEDFATYYCQSNFYSDSTTIGPNAFGTGTKVTVLGGGGGSEVQLVESGGGLVQPGGSLRLSCAASGFSFSNSYWICWVRQAPGKCLEWIGCTFVGSSDSTYYANWAKGRFTISRDNSKNTVYLQMNSLRAEDTAVYYCARHPSDAVYGYANNLWGQGTLVTVSSGGGGSGGGGSGGGGSGGGGSIQMTQSPSSLSASVGDRVTITCQASQSINNVLAWYQQKPGKAPKLLIYRASTLASGVPSRFSGSGSGTDFTLTISSLQPEDFATYYCQSSYGNYGDFGCGTKVTVLGGGGGSQVQLQESGPGLVKPSETLSLTCKVSGFSFNSDYWIYWIRQPPGKGLEWIGSIYGGSSGNTQYASWAQGRVTISVDSSKNQFSLKLSSVTAADTAVYYCARGYVDYGGATDLWGQGTLVTVSSGGGGSGGGGSIQMTQSPSSLSASVGDRVTITCQSSESVYSNNQLSWYQQKPGQPPKLLIYDASDLASGVPSRFSGSGSGTDFTLTISSLQPEDFATYYCAGGFSSSSDTAFGGGTKLTVLGGGGGSGGGGSGGGGSGGGGSEVQLVESGGGLVQPGGSLRLSCAASGFSLSSNAMGWVRQAPGKGLEYIGIISVGGFTYYASWAKGRFTISRDNSKNTVYLQMNSLRAEDTATYFCARDRHGGDSSGAFYLWGQGTLVTVSS
notes: trispecific scDb-scFv; also called 38-02-A04 sc13 scDb-i/37-20-B03 sc01 scDb-o/19-01-H04 sc03 scFv
